Reference: the DeepSol protein solubility set

test: soluble on expression in E. coli; label from the status in PepcDB or PDB records

| Sequence | soluble on expression in E. coli |
| --- | --- |
| GSHMKNSVSVDLPGEMKVLVSKEKNKDGKYDLIATVDKLELKGTSDKNNGSGVLEGVKADKSKVKLTISDDLGQTTLEVFKEDGKTLVSKKVTSKDKSSTEEKFNEKGELSEKKITRADKSSTEEKFNEKGELSEKKITRADKSSTEEKFNEKGELSEKKITRADKSSTEEKFNEKGELSEKKITRADKSSTEEKFNEKGELSEKKITRADKSSTEEKFNEKGEVSEKIITRADGTRLEYTGIKSDGSGKAKEVLKGYVLEGTLTAEKTTLVVKEGTVTLSKNISKSGEVSVELNDTDSSAATKKTAAWNSGTSTLTITVNSKKTKDLVFTKENTITVQQYDSNGTKLEGSAVEITKLDEIKNALK | soluble |
| GSHMPVVHVIDVESGNLQSLTNAIEHLGYEVQLVKSPKDFNISGTSRLILPGVGNYGHFVDNLFNRGFEKPIREYIESGKPIMGICVGLQALFAGSVESPKSTGLNYIDFKLSRFDDSEKPVPEIGWNSCIPSENLFFGLDPYKRYYFVHSFAAILNSEKKKNLENDGWKIAKAKYGSEEFIAAVNKNNIFATQFHPEKSGKAGLNVIENFLKQQSPPIPNYSAEEKELLMNDYSNYGLTRRIIACLDVRTNDQGDLVVTKGDQYDVREKSDGKGVRNLGKPVQLAQKYYQQGADEVTFLNITSFRDCPLKDTPMLEVLKQAAKTVFVPLTVGGGIKDIVDVDGTKIPALEVASLYFRSGADKVSIGTDAVYAAEKYYELGNRGDGTSPIETISKAYGAQAVVISVDPKRVYVNSQADTKNKVFETEYPGPNGEKYCWYQCTIKGGRESRDLGVWELTRACEALGAGEILLNCIDKDGSNSGYDLELIEHVKDAVKIPVIASSGAGVPEHFEEAFLKTRADACLGAGMFHRGEFTVNDVKEYLLEHGLKVRMDEE | soluble |
| GSHMRLSDYFPESSISVIHSAKDWQEAIDFSMVSLLDKNYISENYIQAIKDSTINNGPYYILAPGVAMPHARPECGALKTGMSLTLLEQGVYFPGNDEPIKLLIGLSAADADSHIGAIQALSELLCEEEILEQLLTASSEKQLADIISRG | soluble |
| GSHMSKDATKEISAPTDAKERSKAIETAMSQIEKAFGKGSIMKLGAESKLDVQVVSTGSLSLDLALGVGGIPRGRITEIYGPESGGKTTLALAIVAQAQKAGGTCAFIDAEHALDPVYARALGVNTDELLVSQPDNGEQALEIMELLVRSGAIDVVVVDSVAALTPRAEIEGDMGDSLPGLQARLMSQALRKLTAILSKTGTAAIFINQVREKIGVMYGNPETTTGGRALKFYASVRLDVRKIGQPTKVGNDAVANTVKIKTVKNKVAAPFKEVELALVYGKGFDQLSDLVGLAADMDIIKKAGSFYSYGDERIGQGKEKTIAYIAERPEMEQEIRDRVMAAIRAGNAGEAPALAPAPAAPEAAEA | soluble |
| GSHMSVRIVDVREITKPISSPIRNAYIDFTKMTTSLVAVVTDVVREGKRVVGYGFNSNGRYGQGGLIRERFASRILEADPKKLLNEAGDNLDPDKVWAAMMINEKPGGHGERSVAVGTIDMAVWDAVAKIAGKPLFRLLAERHGVKANPRVFVYAAGGYYYPGKGLSMLRGEMRGYLDRGYNVVKMKIGGAPIEEDRMRIEAVLEEIGKDAQLAVDANGRFNLETGIAYAKMLRDYPLFWYEEVGDPLDYALQAALAEFYPGPMATGENLFSHQDARNLLRYGGMRPDRDWLQFDCALSYGLCEYQRTLEVLKTHGWSPSRCIPHGGHQMSLNIAAGLGLGGNESYPDLFQPYGGFPDGVRVENGHITMPDLPGIGFEGKSDLYKEMKALAE | soluble |
| GSHMTIEQMVDRLLSYPERTKMQILAPIVSGKKGTHAKTLEDIRKQGYVRVRIDREMRELTGDIELEKNKKHSIDVVVDRIIIKDGIAARLADSLETALKLADGKVVVDVIGEGELLFS | soluble |
| GSMIDKSAFVHPTAIVEEGASIGANAHIGPFCIVGPHVEIGEGTVLKSHVVVNGHTKIGRDNEIYQFASIGEVNQDLKYAGEPTRVEIGDRNRIRESVTIHRGTVQGGGLTKVGSDNLLMINAHIAHDCTVGNRCILANNATLAGHVSVDDFAIIGGMTAVHQFCIIGAHVMVGGCSGVAQDVPPYVIAQGNHATPFGVNIEGLKRRGFSREAITAIRNAYKLIYRSGKTLDEVKPEIAELAETYPEVKAFTDFFARSTRGLIR | soluble |
| GSMPTTCGFPNCKFRSRYRGLEDNRHFYRIPKRPLILRQRWLTAIGRTEETVVSQLRICSAHFEGGEKKEGDIPVPDPTVDKQIKIELPPK | soluble |
| GSPELGFSFDYAYQPIVNLHDQSIFAHEALVRGPNGEGAMSVLNQVTDQNRYRFDQKCRTTAIAGAAKLGMTERLSINFLPNAVYRPELCIRSTLEAAKQHDFPIERLIFETIESEHVDNNNHLSNILREYREFGFMTAIDDFGAGYSGLTLLADFQPDLIKLDMNLVRDIHRDRARQAIVRGVVTMCKDLGIKLIAEGIEHIEERDFLADCGISLMQGYLFAKP | not soluble |
| GSPGIPGSTSELEEDFAKILMLKEERIKELEKRLSEKEEEIQELKRKLHKCQSVLPVPSTHIGPRTT | soluble |
| GSPGISGGGGGILGLMAEQEPTAEQLAQIAAENEEDEHSVNYKPPAQKSIQEIQELDKDDESLRKYKEALLGRVAVSADPNVPNVVVTRLTLVCSTAPGPLELDLTGDLESFKKQSFVLKEGVEYRIKISFRVNREIVSGMKYIQHTYRKGVKIDKTDYMVGSYGPRAEEYEFLTPMEEAPKGMLARGSYNIKSRFTDDDRTDHLSWEWNLTIKKEWKD | soluble |
| GSQNNECKMVDLRGAKVASFTVEGCELICLPQAFDLFLKHLVGGLHTVYTKLKRLEITPVVCNVEQVRILRGLGAIQPGVNRCKLISRKDFETLYNDCTNA | soluble |
| GSSGSSGAAFAKILDPAYQVDKGGRVRFVVELADPKLEVKWYKNGQEIRPSTKYIFEHKGCQRILFINNCQMTDDSEYYVTAGDEKCSTELFVRSGPSSG | soluble |
| GSSHHHHHHSSGLVPRGSHMSVQNVVLFDTQPLTLMLGGKLSYINVAYQTYGTLNDEKNNAVLICHALTGDAEPYFDDGRDGWWQNFMGAGLALDTDRYFFISSNVLGGCKGTTGPSSINPQTGKPYGSQFPNIVVQDIVKVQKALLEHLGISHLKAIIGGSFGGMQANQWAIDYPDFMDNIVNLCSSIYFSAEAIGFNHVMRQAVINDPNFNGGDYYEGTPPDQGLSIARMLGMLTYRTDLQLAKAFGRATKSDGSFWGDYFQVESYLSYQGKKFLERFDANSYLHLLRALDMYDPSLGYENVKEALSRIKARYTLVSVTTDQLFKPIDLYKSKQLLEQSGVDLHFYEFPSDYGHDAFLVDYDQFEKRIRDGLAGN | soluble |
| GSVYNTKKVGKRLNIQLKKGTEGLGFSITSRDVTIGGSAPIYVKNILPRGAAIQDGRLKAGDRLIEVNGVDLAGKSQEEVVSLLRSTKMEGTVSLLVFRQEEAFHPREMNA | soluble |
| GTPLSSDEKIRVLVWNIFKQQRAEWQSVLKNFGKDAHLVLLQEAQTTPELVRFATSNYLAADQVPALVLPQHPSGVMTLASAHPIYCCPLREREPILRLPKSALVTVYPLPDARLLMVVNIHAVNFSLGVDVYSKQLLPIGDQIAHHSGPVIMAGDFNAWSRPRMNALYRFAREMSLREVRFSDDQRRRAFGRPLDFVFYRGLSVHDASVLVTRASDHNPLLVEFSPGKP | not soluble |
| GTQSTHESLKPQRVQFQSRNFHNILQWQPGRALTGNSSVYFVQYKIYGQRQWKNKEDCWGTQELSCDLTSETSDIQEPYYGRVRAASAGSYSEWSMTPRFTPWWETKIDPPVMNITQVNGSLLVILHAPNLPYRYQKEKNVSIEDYYELLYRVFIINNSLEKEQKVYEGAHRAVEIEALTPHSSYCVVAEIYQPMLDRRSQRSEERCVEIP | soluble |
| GTVSATSPNKCKRPMNAFMLFAKKYRVEYTQMYPGKDNRAISVILGDRWKKMKNEERRMYTLEAKALAEEQKRLNPDCWK | soluble |
